Here are results for two molecules from patent US20220259322A1.

Usually Kd stands for the concentration at which binding is half-saturated. Usually koff stands for the first-order rate constant of dissociation. One may read the kon as the second-order rate constant of association. What is called EC50 is the concentration giving half of the maximal effect. A lower EC50 goes with greater potency.

For experiment [1], the target named is recombinant GRP78 full length protein (UniProt P11021). The experiment in a line: Biacore, recombinant full length GRP78, scFv1183-Fc from 500 nM in two-fold dilutions. For orientation: SPR reads the build-up and loss of mass on a sensor chip optically.
For experiment [2], the target named is 78-kDa glucose-regulated protein (GRP78) (UniProt P11021). The experiment can be described thus: flow cytometry, irradiated A549 cells, % of positive cells, 4PL fit. (In flow cytometry, cells or beads pass a laser one at a time.)
Experiment [3] deals with recombinant GRP78 full length protein (UniProt P11021). The experiment can be described thus: Biacore, recombinant full length GRP78, scFv1171-Fc from 500 nM in two-fold dilutions.
In experiment [4] the target is 78-kDa glucose-regulated protein (GRP78) (UniProt P11021). The experiment in a line: flow cytometry, irradiated A549 cells, gMFI minus secondary only, one site-specific binding fit.

Sequence of recombinant GRP78 full length protein (P11021 19-654 limits assumed): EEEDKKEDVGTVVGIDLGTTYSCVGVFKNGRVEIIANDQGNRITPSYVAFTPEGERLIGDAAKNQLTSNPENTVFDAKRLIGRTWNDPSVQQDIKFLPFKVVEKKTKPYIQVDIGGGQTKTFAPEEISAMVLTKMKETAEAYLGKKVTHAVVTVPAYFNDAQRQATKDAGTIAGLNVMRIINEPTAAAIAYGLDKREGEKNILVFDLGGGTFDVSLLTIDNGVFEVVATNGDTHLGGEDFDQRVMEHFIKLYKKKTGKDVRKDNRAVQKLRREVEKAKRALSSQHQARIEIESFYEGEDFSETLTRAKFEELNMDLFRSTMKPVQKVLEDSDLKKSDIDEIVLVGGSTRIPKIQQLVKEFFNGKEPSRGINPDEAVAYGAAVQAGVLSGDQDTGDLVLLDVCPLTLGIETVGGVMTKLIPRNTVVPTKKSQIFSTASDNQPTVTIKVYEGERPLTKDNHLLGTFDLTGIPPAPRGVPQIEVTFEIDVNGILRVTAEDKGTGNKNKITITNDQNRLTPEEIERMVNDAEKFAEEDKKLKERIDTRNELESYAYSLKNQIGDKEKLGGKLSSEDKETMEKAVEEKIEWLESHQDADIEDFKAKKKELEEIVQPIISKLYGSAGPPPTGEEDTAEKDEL
Sequence of 78-kDa glucose-regulated protein (GRP78) (P11021 19-654 limits assumed): as above

B1: anti-GRP78 scFv-Fc 1183 (Fc fusion, part only; not given: Linker, domain order, Fc, not shown: another chain or arm of the molecule; a dimerising Fc or GST; small tags and cut ends)
VH: QMQLVQSGAEVKKPGSSVKVSCKASGGTFSSYAISWVRQAPGQGLEWMGWISAYNGNTNYAQKLQGRVTMTTDTSTSTAYMELRSLRSDDTAVYYCARDPPLRYFDWFRGSDWFDPWGQGTLVTVS
VL: NFMLTQPHSVSESPGKTVTISCTRSSGSIASNYVQWYQQRPGSSPTTVIYEDNQRPSGVPDRFSGSIDSSSNSASLTISGLKTEDEADYYCQSYDSTNGVFGGGTKLTVL
Regarding B1, in experiment [1], the Kd was 8.4 nM, the koff turned out to be 0.00793 s⁻¹ and the kon is 944000 M⁻¹ s⁻¹.

B2: anti-GRP78 scFv-Fc 1171 (Fc fusion, part only; not given: Linker, domain order, Fc, not shown: another chain or arm of the molecule; a dimerising Fc or GST; small tags and cut ends)
VH: QVQLVQSGAEVKKPGSSVKVSCKSSGGTFSNPVISWVRQAPGQGLEWMGGIITMFGTTYYGNSVRGRFIVSRDNSKNMLFLQMNSLRAEDTAVYYCAKDPPMFDYWGQGTLVTVS
VL: DIQLTQSPSSLSASVGDRVTITCRASQSISSYLNWYQQKPGKAPKLLIYDASNLETGVPSRFSGSGSGTDFTFTISSLQPEDIATYYCQQYDNLLALTFGGGTKVDIK
B2 had a concentration for a half-maximal effect (EC50) in experiment [2] of 16.8 nM. Further, in experiment [3], the dissociation constant Kd is 4.77 nM, the off-rate (koff) was found to be 0.00324 s⁻¹ and the kon stood at 679000 M⁻¹ s⁻¹. In addition, the Kd in experiment [4] is 18.7 nM.
